Experimental data taken from PMC7160669 (Biochemistry, 2019).
Substitutions are numbered along the chain they refer to.

B1: ChdC (protein)
chain: MSQAAETLDGWYSLHLFYAVDWASLRIVPKDERDALVTEFQSFLENTATVRSSKSGDQAIYNITGQKADLLLWFLRPEMKSLNHIENEFNKLRIADFLIPTYSYVSVIELSNYLAGKSDEDPYENPHIKARLYPELPHSDYICFYPMNKRRNETYNWYMLTMEERQKLMYDHGMIGRKYAGKIKQFITGSVGFDDFEWGVTLFSDDVLQFKKIVYEMRFDETTARYGEFGSFFVGHIINTNEFDQFFAIS
modifications: coproporphyrin III bound to ChdC
B2: CpfC (protein)
chain: MTKKMGLLVMAYGTPYKESDIEPYYTDIRHGKRPSEEELQDLKDRYEFIGGLSPLAGTTDDQADALVSALNKAYADVEFKLYLGLKHISPFIEDAVEQMHNDGITEAITVVLAPHYSSFSVGSYDKRADEEAAKYGIQLTHVKHYYEQPKFIEYWTNKVNETLAQIPEEEHKDTVLVVSAHSLPKGLIEKNNDPYPQELEHTALLIKEQSNIEHIAIGWQSEGNTGTPWLGPDVQDLTRDLYEKHQYKNFIYTPVGFVCEHLEVLYDNDYECKVVCDDIGANYYRPKMPNTHPLFIGAIIDEIKSIF
modifications: coproporphyrin III bound to CpfC
B3: CpfC (protein)
chain: B2 chain

Tests used:
[1] = target: T1, CpfC (coproporphyrin ferrochelatase; HemH) (Staphylococcus aureus, UniProt P64125); assay: tryptophan fluorescence quenching; type: binding; settings: 50 mM Tris pH 8, 150 mM NaCl, 25 °C
T1 sequence (P64125 1-307): B2 chain with I300V

[2] = target: T2, ChdC (SaChdC; coproheme decarboxylase) (Staphylococcus aureus, UniProt A6QEP0); assay: tryptophan fluorescence quenching; type: binding; settings: 50 mM Tris pH 8, 150 mM NaCl, 25 °C; Langmuir-Hill fit
T2 sequence (A6QEP0 1-250): B1 chain

CpfC = target: B3; assay: UV-vis titration
ChdC [3] = target: T3, ChdC (Staphylococcus aureus, UniProt Q2FJ56); assay: UV-vis titration
T3 chain: B1 chain

ChdC [4] = target: T3, ChdC; assay: UV-vis titration and fluorescence quenching

In the case of CC1=C(CCC(=O)O)c2cc3nc(cc4[nH]c(cc5[nH]c(cc1n2)c(C)c5CCC(=O)O)c(CCC(=O)O)c4C)C(CCC(=O)O)=C3C [coproporphyrin], the KD [1] is reported as “affinities of CpfC and/or ChdC for coproporphyrin and/or coproheme were measured titrimetrically” and the KD [2] is reported as “ChdC binds coproporphyrin with an affinity that resembles that for coproheme”.

Work on B1 yielded a Kd (CpfC) of 40 µM.

In the case of B2, the Kd (ChdC [3]) is reported as 80 µM.

Work on B3 yielded a Kd (ChdC [4]) of 17 µM.
